16 molecules from patent publication US20170348438A1 (CASE WESTERN RESERVE UNIVERSITY, published 2017) can be followed below.

Positions of bridges follow the written chain, without caps; N, C: chain ends. Primed or numbered codes have the meaning given here. No end group written: not given here. PEG3′ = not defined here

Sequences and labels used below:
B1: His-tagged MRP-14 (other)
chain: MTCKMSQLERNIETIINTFHQYSVKLGHPDTLNQGEFKELVRKDLQNFLKKENKNEKVIEHIMEDLDTNADKQLSFEEFIMLMARLTWASHEKMHEGDEGPGHHHKPGLGEGTP
notes: Commercial His-tagged protein, captured on a Ni-NTA chip for SPR and coated on plates for the phage ELISA; The position of the His tag is unknown; its order in the chain is arbitrary; not shown: His tag

Assay [1] addresses T1, TMV-MTP6 (tobacco mosaic virus particle displaying MTP6) (tobacco mosaic virus, UniProt P69687 2-159, alkyne handle (3-ethynylaniline diazonium) on exterior tyrosine residues; about 20% of the coat proteins carry MTP6; C-terminal 3-monomer PEG spacer and azide, joined by CuAAC to an alkyne on …).
T1 construct: Whole virus nanoparticle (with its RNA) with about 400 MTP6 peptides on 2130 coat proteins
The experiment in a line: SPR, His-tagged MRP-14 on Ni-NTA chip, kinetic curve fit. Background: Surface plasmon resonance follows binding to a sensor surface in real time, without labels.

The target in assay [2] is T1, TMV-MTP6 (tobacco mosaic virus particle …). Nature of the assay: SPR, His-tagged MRP-14 on Ni-NTA chip, kinetic curve fit, concentration as MTP6 peptide.
The target of assay [3] is T2, bovine serum albumin (bovine, UniProt P02769 25-607).
T2 construct: Background control in the phage ELISA; also called BSA
T2 sequence (P02769 25-607 limits assumed): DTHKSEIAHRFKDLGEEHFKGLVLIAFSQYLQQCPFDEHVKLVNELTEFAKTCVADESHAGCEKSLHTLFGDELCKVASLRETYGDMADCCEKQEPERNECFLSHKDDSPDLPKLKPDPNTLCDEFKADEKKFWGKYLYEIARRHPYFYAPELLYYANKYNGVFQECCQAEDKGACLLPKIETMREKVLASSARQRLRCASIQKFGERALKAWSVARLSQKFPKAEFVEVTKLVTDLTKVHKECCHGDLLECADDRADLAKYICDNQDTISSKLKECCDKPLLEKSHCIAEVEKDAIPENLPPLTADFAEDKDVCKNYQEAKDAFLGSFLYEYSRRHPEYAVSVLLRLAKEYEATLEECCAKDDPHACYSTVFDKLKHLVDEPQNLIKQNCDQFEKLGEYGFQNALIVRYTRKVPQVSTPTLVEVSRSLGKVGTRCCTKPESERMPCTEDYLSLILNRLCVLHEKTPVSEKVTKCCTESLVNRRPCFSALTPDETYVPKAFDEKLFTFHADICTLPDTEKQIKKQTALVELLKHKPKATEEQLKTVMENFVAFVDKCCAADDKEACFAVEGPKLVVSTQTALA
The experiment in a line: phage ELISA on BSA-blocked wells, HRP anti-M13 antibody, ABTS, absorbance 410 nm. For orientation: ELISA stands for enzyme-linked immunosorbent assay.

Assay [4] has as its target B1. Nature of the assay: SPR, His-tagged MRP-14 on Ni-NTA chip, saturation binding curve fit.
Assay [5] deals with B1. Nature of the assay: SPR, His-tagged MRP-14 on Ni-NTA chip, peptide injected.
For assay [6], the target named is T3, MRP-8/14 heterodimer (untagged MRP-8 premixed 1:1 with His-tagged MRP-14) (UniProt P05109 1-93; P06702 1-114).
T3 construct: Formed by mixing equal molar amounts for 3 hours with 0.1 mM CaCl2; only MRP-14 has a His tag; not shown: His tag
T3 sequence 1: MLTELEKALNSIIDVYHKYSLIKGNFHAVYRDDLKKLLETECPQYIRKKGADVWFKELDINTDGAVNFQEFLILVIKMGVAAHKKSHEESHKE
T3 sequence 2: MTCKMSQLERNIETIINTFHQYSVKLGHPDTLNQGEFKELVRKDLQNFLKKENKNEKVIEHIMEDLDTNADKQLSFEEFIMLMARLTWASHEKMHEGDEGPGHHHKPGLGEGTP
The experiment in a line: SPR, MRP-8/14 held on Ni-NTA chip by the His tag of MRP-14, saturation binding curve fit; MRP-8/14 heterodimer on the chip, not MRP-14 alone.

T1 sequence (P69687 2-159): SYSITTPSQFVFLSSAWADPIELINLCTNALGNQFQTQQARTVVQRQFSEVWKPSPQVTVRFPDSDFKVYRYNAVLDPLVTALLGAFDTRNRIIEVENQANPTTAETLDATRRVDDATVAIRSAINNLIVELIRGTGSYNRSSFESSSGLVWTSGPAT

A word on the koff: it is a measure of how fast the partners let go of each other. For orientation: kon means the second-order rate constant of association. One may read the Kd as a measure of binding affinity in units of concentration. Regarding B1, in assay [1], the koff came out at 0.000686 s⁻¹ and the on-rate (kon) amounted to 910 M⁻¹ s⁻¹. This molecule also gave a Kd in assay [2] of 754 nM.

B2: M13 phage displaying MTP4 (ACKAPAHHHC) (peptide)
peptide: ACKAPAHHHC
modifications: disulfide 2-10 (inferred); also: displayed on M13 phage coat protein fusion
notes: Tested as whole phage in the ELISA; cyclic library; not shown: rest of the M13 coat protein fusion of the Ph.D.-C7C library (New England Biolabs); not described
B2: the binding result in assay [3] is “no binding (tested: 2.5E+11 pfu/mL)”.

B3: M13 phage displaying MTP1 (TTFHHHK) (peptide)
peptide: TTFHHHK
notes: Tested as whole phage in the ELISA; not shown: rest of the M13 coat protein fusion of the Ph.D.-7 library (New England Biolabs); not described
Turning to B3, the binding result in assay [3] is given as “no binding (tested: 2.5E+11 pfu/mL)”.

B4: MTP6-N3 (azide-functionalized MTP6) (peptide)
peptide: ACNSVHQHHCGGGS-{PEG3′-azide}
modifications: disulfide 2-10 (inferred)
Molecule B4 showed a Kd in assay [4] of 55.7 µM.

B5: M13 phage displaying MTP3 (HNHMADP) (peptide)
peptide: HNHMADP
notes: as for B3
For B5, the binding result in assay [3] was “no binding (tested: 2.5E+11 pfu/mL)”.

B6: MTP3 synthetic peptide HNHMADPGGGS (peptide)
peptide: HNHMADPGGGS-NH2
The molecule B6 had a dissociation constant Kd in assay [4] of 117 µM.

B7: M13 phage displaying MTP7 (ACYGKPEHHC) (peptide)
peptide: ACYGKPEHHC
modifications: disulfide 2-10 (inferred); also: displayed on M13 phage coat protein fusion
notes: as for B2
Take B7: the binding result in assay [3] was “no binding (tested: 2.5E+11 pfu/mL)”.

B8: M13 phage displaying MTP2 (ASSHIHH) (peptide)
peptide: ASSHIHH
notes: as for B3
Take B8: the binding result in assay [3] is on record as “no binding (tested: 2.5E+11 pfu/mL)”.

B9: M13 phage displaying MTP10 (ACRPKNNHSC) (peptide)
peptide: ACRPKNNHSC
modifications: disulfide 2-10 (inferred); also: displayed on M13 phage coat protein fusion
notes: as for B2
Regarding B9, the binding result in assay [3] was “no binding (tested: 2.5E+11 pfu/mL)”.

B10: M13 phage displaying MTP9 (ACPTGLHHAC) (peptide)
peptide: ACPTGLHHAC
modifications: disulfide 2-10 (inferred); also: displayed on M13 phage coat protein fusion
notes: as for B2
Consider B10, for which the binding result in assay [3] was “no binding (tested: 2.5E+11 pfu/mL)”.

B11: MTP2 synthetic peptide ASSHIHHGGGS (peptide)
peptide: ASSHIHHGGGS-NH2
Regarding B11, the equilibrium dissociation constant (Kd) in assay [4] is 77.6 µM.

B12: M13 phage displaying MTP6 (ACNSVHQHHC) (peptide)
peptide: ACNSVHQHHC
modifications: disulfide 2-10 (inferred); also: displayed on M13 phage coat protein fusion
notes: as for B2
Consider B12, for which, in assay [3], the binding result was “no binding (tested: 2.5E+11 pfu/mL)”.

B13: Scrambled peptide MDPHAHNGGGS (peptide)
peptide: MDPHAHNGGGS-NH2
notes: Synthetic control peptide with a GGGS spacer; also called scrambled control
In the case of B13, the binding result in assay [5] is listed as “no binding (tested: 6.25 µM to 100 µM)”.

B14: M13 phage displaying MTP8 (ACPHHPQKHC) (peptide)
peptide: ACPHHPQKHC
modifications: disulfide 2-10 (inferred); also: displayed on M13 phage coat protein fusion
notes: as for B2
For the molecule B14, the binding result in assay [3] is “no binding (tested: 2.5E+11 pfu/mL)”.

B15: MTP6 synthetic peptide ACNSVHQHHCGGGS (peptide)
peptide: ACNSVHQHHCGGGS-NH2
modifications: disulfide 2-10 (inferred)
notes: lead peptide
As to B15, the Kd was determined as 39.6 µM in assay [4] and 57.6 µM in assay [6].

B16: M13 phage displaying MTP5 (ACNSHRHGAC) (peptide)
peptide: ACNSHRHGAC
modifications: disulfide 2-10 (inferred); also: displayed on M13 phage coat protein fusion
notes: as for B2
Consider B16, for which, in assay [3], the binding result is “no binding (tested: 2.5E+11 pfu/mL)”.
